Here are results for one molecule from publication PMC5113203.

The target of this data set is human lysyl-tRNA synthetase anticodon-binding domain (hLysRS ACB) (Homo sapiens, UniProt Q15046 91-216). Briefly: fluorescence anisotropy. (Polarisation of emitted light reports the rotation of a fluorescent probe.)
Chain of human lysyl-tRNA synthetase anticodon-binding domain (hLysRS ACB) (Q15046 91-216): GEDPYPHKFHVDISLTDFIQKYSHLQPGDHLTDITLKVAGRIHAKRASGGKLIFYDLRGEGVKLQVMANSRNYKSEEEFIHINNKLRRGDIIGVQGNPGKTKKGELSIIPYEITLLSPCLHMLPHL

B1: C9 (ssRNA)
RNA: CCCCCCCCC
On to B1, for which the binding signal is ~100 fold lower affinity than U9.
